Test [1] deals with T1, mouse CD137 ligand on DO11.10 cells (mouse, UniProt P41274 1-309).
T1 construct: whole, on cells
T1 sequence (looked up): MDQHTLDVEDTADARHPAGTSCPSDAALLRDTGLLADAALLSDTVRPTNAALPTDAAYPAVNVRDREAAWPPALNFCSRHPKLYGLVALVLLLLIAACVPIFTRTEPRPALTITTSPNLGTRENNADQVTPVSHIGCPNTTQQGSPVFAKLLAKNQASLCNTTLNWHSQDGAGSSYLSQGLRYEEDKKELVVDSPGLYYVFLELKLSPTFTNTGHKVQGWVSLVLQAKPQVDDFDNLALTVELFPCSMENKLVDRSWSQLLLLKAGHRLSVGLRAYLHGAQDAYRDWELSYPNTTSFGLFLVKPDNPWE
The test is described as follows: flow cytometry, detected with anti mouse Fc antibody.
Experimental: Cells were incubated with the CD137 antigens for 1 hour, and then a fluorescently labelled anti mouse Fc fragment antibody was used to detect cell binding.

Another test has as its target T2, human OX40 (human, UniProt P43489 29-216).
T2 sequence (looked up): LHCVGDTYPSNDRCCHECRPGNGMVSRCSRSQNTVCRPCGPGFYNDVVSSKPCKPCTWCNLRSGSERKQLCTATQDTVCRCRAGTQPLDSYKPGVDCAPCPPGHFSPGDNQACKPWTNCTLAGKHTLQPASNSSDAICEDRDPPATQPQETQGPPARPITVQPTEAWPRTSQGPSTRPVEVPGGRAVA
The test is described as follows: SPR, receptor amine-coupled ~1000 RU. The protocol:
(§1) The specificity of the anti-human CD137 Fcabs for human CD137 compared to other related TNFSFR family members was tested. 8 of the Fcabs were tested in mock mAb^2 (HelD1.3) format and measured by SPR in a Biacore T200 (GE Healthcare) by testing for binding to other human TNFRSF receptors: CD40, OX40 and GITR. Amine coupling (amine coupling kit, GE Healthcare, BR-1000-50) was used to coat human CD40, GITR and OX40 to approximately 1000 RU in Biacore CM5 chips (GE Healthcare, cat no 29149603). […] The chip was regenerated by injection of 10 mM glycine pH 2.5 for 12 s at 30 µl/min. Antibodies specific to the different TNFRSF members were used as positive controls to verify Biacore chip coating. Data was double reference subtracted and analysed using BIAevaluation 3.2 software.
(In general: In SPR one partner is held on a chip, and binding of the other changes the refractive index at the surface.)

The next test deals with T3, human GITR (human, UniProt Q9Y5U5 26-161, limits assumed).
T3 sequence (looked up): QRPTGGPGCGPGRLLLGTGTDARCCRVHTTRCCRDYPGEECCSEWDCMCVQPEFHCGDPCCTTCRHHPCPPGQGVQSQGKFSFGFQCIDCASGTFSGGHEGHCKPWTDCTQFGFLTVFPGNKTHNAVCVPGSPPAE
The test is described as follows: SPR, receptor amine-coupled ~1000 RU. The protocol: as §1

The next test addresses human CD40 (human, UniProt P25942 21-193). Put plainly: SPR, receptor amine-coupled ~1000 RU. The protocol: as §1
The target in test [2] is human CD137 expressed on cells (human, UniProt Q07011 24-255). The test is described as follows: cell-based or functional assay.
A further test has as its target T4, hCD137-Avi-His (human, UniProt Q07011 24-186, single biotin on the Avi tag in the biotinylated form).
T4 construct: Monomer; also called human monomeric CD137; human CD137-Avi-His
Put plainly: SPR, mAb2 captured by anti-human Fab, antigen in solution. The protocol:
(§2) Each mAb^2 was captured to approximately 150 RU by injecting a 3 µg/ml solution of mAb^2 diluted in HBS-EP+buffer (GE Healthcare #BR1006-69) for 60 seconds at 30 µl/min. Then different concentrations of human, cyno or mouse CD137 antigen (unbiotinylated human, cyno or mouse CD137-mFc-Avi or human CD137-Avi-His) in HBS-EP+buffer were flowed over the chip for 3 min at 60 µl/min and then allowed to dissociate for 10 minutes. After each antigen concentration the chip was regenerated by injecting 10 mM glycine pH 2.1 at a flow rate of 30 µl/min for 30 seconds. Buffer HBS-EP+ was injected before the highest concentration of antigen and after the lowest concentration of antigen for reference subtraction, and one of the concentrations at random was repeated twice. The binding kinetics were fit with a 1:1 Langmuir model to generate equilibrium binding constants (K_D) for each sample. Data analysis was performed with BiaEvaluation software version 3.2.

In the next test the target is T5, cCD137-mFc-Avi (cynomolgus; mouse, one biotin on each Avi tag in the biotinylated form).
T5 construct: also called cynomolgus dimeric CD137; cyno CD137-mFc-Avi
T5 chain: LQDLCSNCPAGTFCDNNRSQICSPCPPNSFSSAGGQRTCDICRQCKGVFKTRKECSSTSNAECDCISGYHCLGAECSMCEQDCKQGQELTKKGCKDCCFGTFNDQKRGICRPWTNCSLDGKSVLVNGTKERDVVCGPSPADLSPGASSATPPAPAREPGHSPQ
The test is described as above. The protocol:
as §2

A further test concerns the target T6, hCD137-mFc-Avi (human; mouse, UniProt Q07011 24-186, one biotin on each Avi tag in the biotinylated form).
T6 construct: also called human dimeric CD137; human CD137-mFc-Avi
The test is described as above. The protocol: as §2

In a further test the target is mouse CD40 (mouse, UniProt P27512 24-193, limits assumed, chemically biotinylated (EZ-Link Sulfo-NHS-SS-Biotin)). Put plainly: BLI (Octet), biotinylated receptor on streptavidin sensors. The protocol: (§3) The specificity of the anti-mouse CD137 Fcabs for mouse CD137 were tested in HeID1.3 "mock" mAb² format and measured by BLI in an Octet QKe system by testing for binding of the Fcabs to other mouse TNFRSF receptors (CD40, OX40, GITR). Streptavidin biosensors (PALL ForteBio 18-5021) to coat 10 ng/μl mouse CD40, GITR, OX40 receptors (all obtained from R&D Systems and biotinylated using an EZ-Link Sulfo-NHS-SS-Biotin kit from Thermoscientific #21328). Anti-mouse CD137 Fcabs in mock mAb² format were diluted 1:1 in kinetic buffer (PALL 18-1092) to a final concentration of at least 1 μM. Antigen-coated sensors were dipped into the mAb² solutions for 180 seconds followed by 180 seconds in 1× kinetic buffer. Antibodies for each of the TNFRSF receptors were used as positive controls.
A general note: BLI is a label-free optical method that tracks binding on a fibre tip over time.

Another test has as its target T7, mouse GITR (mouse, UniProt O35714 20-153, limits assumed, chemically biotinylated (EZ-Link Sulfo-NHS-SS-Biotin)).
T7 sequence (looked up): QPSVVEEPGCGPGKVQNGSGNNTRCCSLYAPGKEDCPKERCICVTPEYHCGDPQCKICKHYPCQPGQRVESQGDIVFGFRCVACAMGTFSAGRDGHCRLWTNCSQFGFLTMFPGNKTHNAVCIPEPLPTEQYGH
Described as above. The protocol:
as §3

Test [3] deals with mouse CD137 expressed on cells (mouse, UniProt P20334 24-256). The test is described as follows: cell-based or functional assay.

T6 sequence (Q07011 24-186): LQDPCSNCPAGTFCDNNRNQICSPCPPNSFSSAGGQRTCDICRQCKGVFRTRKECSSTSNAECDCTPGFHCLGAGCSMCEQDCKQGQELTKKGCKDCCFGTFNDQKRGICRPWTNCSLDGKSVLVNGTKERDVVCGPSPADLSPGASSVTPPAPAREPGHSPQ
T4 sequence (Q07011 24-186): as above
Sequence of human CD40 (P25942 21-193 limits assumed): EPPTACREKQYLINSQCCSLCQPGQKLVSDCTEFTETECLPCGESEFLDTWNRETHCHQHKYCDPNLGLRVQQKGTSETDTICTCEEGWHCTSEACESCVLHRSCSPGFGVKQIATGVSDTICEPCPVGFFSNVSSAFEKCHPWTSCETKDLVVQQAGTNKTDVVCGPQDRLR
Sequence of human CD137 expressed on cells (Q07011 24-255): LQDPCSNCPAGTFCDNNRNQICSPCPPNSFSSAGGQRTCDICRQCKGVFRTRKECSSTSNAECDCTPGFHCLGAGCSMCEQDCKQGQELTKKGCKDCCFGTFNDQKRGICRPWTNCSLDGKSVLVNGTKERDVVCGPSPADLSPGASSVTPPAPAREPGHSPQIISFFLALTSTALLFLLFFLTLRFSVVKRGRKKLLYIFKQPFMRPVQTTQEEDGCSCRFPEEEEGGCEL
Sequence of mouse CD40 (P27512 24-193 limits assumed): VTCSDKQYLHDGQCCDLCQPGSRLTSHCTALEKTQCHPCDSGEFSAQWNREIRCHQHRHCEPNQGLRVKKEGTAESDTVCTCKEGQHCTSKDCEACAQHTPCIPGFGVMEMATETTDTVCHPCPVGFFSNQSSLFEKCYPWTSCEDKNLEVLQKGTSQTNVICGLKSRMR

B1: mCD137-mFc-Avi (Fc fusion, not shown: a dimerising Fc or GST; small tags and cut ends)
chain: VQNSCDNCQPGTFCRKYNPVCKSCPPSTFSSIGGQPNCNICRVCAGYFRFKKFCSSTHNAECECIEGFHCLGPQCTRCEKDCRPGQELTKQGCKTCSLGTFNDQNGTGVCRPWTNCSLDGRSVLKTGTTEKDVVCGPPVVSFSPSTTISVTPEGGPGGHSLQVL
modifications: one biotin on each Avi tag in the biotinylated form
notes: also called mouse dimeric CD137; mouse CD137-mFc-Avi
For B1, the binding result in test [1] is recorded as “binds”.

B2: FS22-172-003/HelD1.3 (bispecific antibody, human IgG1, kappa, L234A L235A)
heavy: QVQLQESGPGLVRPSQTLSLTCTVSGSTFSGYGVNWVRQPPGRGLEWIGMIWGDGNTDYNSALKSRVTMLVDTSKNQFSLRLSSVTAADTAVYYCARERDYRLDYWGQGSLVTVSSASTKGPSVFPLAPSSKSTSGGTAALGCLVKDYFPEPVTVSWNSGALTSGVHTFPAVLQSSGLYSLSSVVTVPSSSLGTQTYICNVNHKPSNTKVDKKVEPKSCDKTHTCPPCPAPEAAGGPSVFLFPPKPKDTLMISRTPEVTCVVVDVSHEDPEVKFNWYVDGVEVHNAKTKPREEQYNSTYRVVSVLTVLHQDWLNGKEYKCKVSNKALPAPIEKTISKAKGQPREPQVYTLPPSRDELPYIIPPYNQVSLTCLVKGFYPSDIAVEWESNGQPENNYKTTPPVLDSDGSFFLYSKLTVGADRWLEGNVFSCSVMHEALHNHYTQKSLSLSPG
light: DIQMTQSPASLSASVGETVTITCRASGNIHNYLAWYQQKQGKSPQLLVYNAKTLADGVPSRFSGSGSGTQYSLKINSLQPEDFGSYYCQHFWSTPRTFGGGTKLEIKRTVAAPSVFIFPPSDEQLKSGTASVVCLLNNFYPREAKVQWKVDNALQSGNSQESVTEQDSKDSTYSLSSTLTLSKADYEKHKVYACEVTHQGLSSPVTKSFNRGEC
notes: IgG1
What is called Kd is the concentration at which binding is half-saturated. As for B2, the binding result with human OX40, in the test with human GITR and with human CD40 was “no binding (tested: 1 µM)” each time. Moreover, in [2], the “NF-κB luciferase reporter EC50, HEK.FRT.luc.hCD137 cells, crosslinked with Protein L (+XL)” value stood at 32.6 nM. For the same molecule, the “human monomeric CD137 KD fold difference relative to human dimeric KD” value in the test with hCD137-Avi-His is more than 200 fold. Also, the Kd with cCD137-mFc-Avi amounted to 1.3 nM; with hCD137-mFc-Avi it was 1.5 nM.

B3: FS22m-063 in mock mAb^2 (HelD1.3) format (bispecific antibody, human IgG1, kappa, L234A L235A)
heavy: QVQLQESGPGLVRPSQTLSLTCTVSGSTFSGYGVNWVRQPPGRGLEWIGMIWGDGNTDYNSALKSRVTMLVDTSKNQFSLRLSSVTAADTAVYYCARERDYRLDYWGQGSLVTVSSASTKGPSVFPLAPSSKSTSGGTAALGCLVKDYFPEPVTVSWNSGALTSGVHTFPAVLQSSGLYSLSSVVTVPSSSLGTQTYICNVNHKPSNTKVDKKVEPKSCDKTHTCPPCPAPEAAGGPSVFLFPPKPKDTLMISRTPEVTCVVVDVSHEDPEVKFNWYVDGVEVHNAKTKPREEQYNSTYRVVSVLTVLHQDWLNGKEYKCKVSNKALPAPIEKTISKAKGQPREPQVYTLPPSRDEPYWSYVSLTCLVKGFYPSDIAVEWESNGQPENNYKTTPPVLDSDGSFFLYSKLTVMNYRWELGNVFSCSVMHEALHNHYTQKSLSLSPG
light: B2 light
notes: The entries are those of FS22m-063-AA/HelD1.3 (with LALA); also called FS22m-063-AA/HelD1.3; FS22m-063/HeID1.3
B3: in the test with mouse CD40, the binding result is “no binding (tested: at least 1 µM)”. The binding result with mouse GITR is given as “no binding (tested: at least 1 µM)”. Moreover, in test [3], the “NF-κB luciferase reporter EC50, HEK.FRT.luc.mCD137 cells, crosslinked with Protein L” value came to 1.44 nM and the “NF-κB luciferase reporter, fold-change in activity upon Protein L crosslinking” value worked out at 27 fold.

(Values after US12319739 (F STAR DELTA, dated 2025).)
